The supplement of paper PMC10567573
± gives the standard deviation.

Test: protein stability index of a GFP-peptide fusion (GPS, HEK-293T) (PSI 1-6); higher = more stable
[1] = treatment: DMSO, c terminus: a fixed tail appended
[2] = treatment: MLN4924 1 uM, 8 h, c terminus: a fixed tail appended
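Also: 24-mer peptide tiles fused after GFP, lentivirally expressed, FACS-sorted into six equal bins by GFP/DsRed ratio, decoded by Illumina sequencing, PSI is the read-weighted mean bin number.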

| Sequence | protein stability index [1] | protein stability index [2] | protein stability index (treatment: DMSO, c terminus: native) | protein stability index (treatment: MLN4924 1 uM, 8 h, c terminus: native) |
| --- | --- | --- | --- | --- |
| LSRQEFLGMVGLFGTIISGIQLLI [SLC35F2] | 2.28 ± 0.25 | 2.09 ± 0.33 |  |  |
| ADSQITTIGNLVPQKTYSVKVLAF [PTPRD] | 2.46 ± 0.56 | 2.17 ± 0.28 |  |  |
| TNHIAPHARNGLSLKEEHRAYDLL [IKZF1] | 3.43 ± 0.28 | 3.64 ± 0.11 |  |  |
| KKKNTNKQEMGTYLRFIVSRMKER [ZMYND11] | 2.47 ± 0.16 | 2.92 ± 0.25 |  |  |
| LQKLLSGRSREELDELTGEVAGGG [FEM1A] | 4.64 ± 0.19 | 4.71 ± 0.2 |  |  |
| ADLSSGSSGEDDDFKSCPQGPQGR [PWWP2B] | 5.36 ± 0.15 | 5.52 ± 0.13 |  |  |
| AFPGASHESSGNPPLRVIVKDALF [RHOBTB3] | 2.96 ± 0.28 | 3.25 ± 0.41 |  |  |
| PNDEHWKALSRKSTSFRVYIMAFD [FBXO33] | 2.11 ± 0.52 | 2.27 ± 0.45 |  |  |
| LGLVARQEDSGLRDHSVRVLISNH [AUP1] | 3 ± 0.15 | 3.01 ± 0.36 |  |  |
| VTVKDETATMKDLEAEVKDTTRVE [R3HDM1] | 5.33 ± 0.17 | 5.56 ± 0.053 |  |  |
| KIDDLMQEITEQQDIAQEISEAFS [CHMP4C] | 4.75 ± 0.35 | 4.67 ± 0.28 |  |  |
| NDSGICMSPESYLGSPQHSPSTRG [ATF4] | 4.53 ± 0.29 | 4.86 ± 0.15 |  |  |
| GELEDESLNRACHQQNKIKDLQKE [CEP70] | 5.3 ± 0.28 | 5.34 ± 0.24 |  |  |
| FTGSQPTAERITQLSAPHCKKLSL [ALDH8A1] | 2.89 ± 0.5 | 3.46 ± 0.35 |  |  |
| LFSLKESPEKFQIEANFPRRVLPC [FAF2] | 2.61 ± 0.3 | 2.84 ± 0.24 |  |  |
| YSKFHGLEMCVDARTFGNEARFIR [KMT2E] | 2.21 ± 0.17 | 2.25 ± 0.22 |  |  |
| PVGLVMEYMETGSLEKLLASEPLP [RIPK4] | 3.46 ± 0.48 | 3.13 ± 0.22 |  |  |
| DAISWYQKKIGAYDQQIWEKSIEQ [PHTF1] | 2.77 ± 0.037 | 2.79 ± 0.34 |  |  |
| QQTGDDDEVDDFEDFIFSHFFGDK [PBXIP1] | 4.71 ± 0.51 | 4.9 ± 0.23 |  |  |
| GSDKCVFLKNTEVSSMECEKNLYW [CD69] | 3.06 ± 0.26 | 3.12 ± 0.36 |  |  |
| RRYVASVSLHDRIYVIGGYDGRSR [KLHL12] | 2.53 ± 0.31 | 2.49 ± 0.5 |  |  |
| APGEEEEEEEEATNTHPPASLPSQ [CHGA] | 5.57 ± 0.34 | 5.71 ± 0.19 |  |  |
| YNVSPLSWNVAVKFLMARKFDVLR [PTPN9] | 3.02 ± 0.62 | 2.46 ± 0.88 |  |  |

| Sequence | protein stability index [1] | protein stability index [2] | protein stability index (treatment: DMSO, c terminus: native) | protein stability index (treatment: MLN4924 1 uM, 8 h, c terminus: native) |
| --- | --- | --- | --- | --- |
| RGGGAAGAGGGGSGAGGGSGGSGG [KLHDC10] | 5.2 ± 0.66 | 4.89 ± 0.48 |  |  |
| KTTLGWKYEQAFESSQKYKEGKYI [YPEL3] | 2.37 ± 0.3 | 2.63 ± 0.17 |  |  |
| ERYRHEIAHDGQRIYVLGGGTSWT [KLHDC10] | 2.83 ± 0.48 | 2.79 ± 0.23 |  |  |
| HVPELEMLGRLGYLNHVRAASPQD [MNAT1] | 3.44 ± 0.2 | 3.45 ± 0.45 |  |  |
| PVVSMDLDPQPITDEEEGLIWVVG [PTPRD] | 3.96 ± 0.29 | 4.29 ± 0.48 |  |  |
| NLGGGDPKGWRQLAQEAEAWLNYP [OAS1] | 3.22 ± 0.26 | 3.37 ± 0.26 |  |  |
| HMFTPKLDKMLDPQVWREAATQVF [SLC6A17] | 2.11 ± 0.24 | 2.25 ± 0.47 |  |  |
| FEAPPLQGQAAAPASGSGADSEPA [TRIM55] | 5.65 ± 0.28 | 5.53 ± 0.1 |  |  |
| PPPPPGPPPPPGLPSDGDHQVPTT [WASL] | 5.48 ± 0.26 | 5.63 ± 0.21 |  |  |
| LSMDEKVELYRIKFKESFAEMNRG [COX4I1] | 2.9 ± 0.2 | 2.97 ± 0.21 |  |  |
| ILDQTTSEDAVGGATLGQTTSEEA [HDAC6] | 5.42 ± 0.065 | 5.5 ± 0.15 |  |  |
| LEQRRQQASEREAPSIEQRLQEVR [FCHSD1] | 5.37 ± 0.32 | 5.26 ± 0.12 |  |  |
| LLSLNSLLPESGIVADIELENVLD [TFE3] | 3.3 ± 0.49 | 3.3 ± 0.19 |  |  |
| AAMEGATLDQTTSEEAPGGTELIQ [HDAC6] | 5.64 ± 0.12 | 5.47 ± 0.22 |  |  |
| FHGWKYMFGLVIPLGVLQAIAMYF [SLC2A12] | 2.31 ± 0.46 | 2.6 ± 0.56 |  |  |
| GRVHLVKEKTAKHFFALKVMSIPD [PRKX] | 1.87 ± 0.52 | 2.38 ± 0.57 |  |  |
| KCDSLKEECIPEHMVRESKIMEAE [FAN1] | 5.2 ± 0.39 | 5 ± 0.22 |  |  |
| QKVLGKALSLIRFPLMTIEEFAAG [BTBD1] | 3.06 ± 0.57 | 2.52 ± 0.38 |  |  |
| LAICRPLTYSTRMSQTVQRMLVAA [OR3A1] | 2.49 ± 0.17 | 2.54 ± 0.14 |  |  |
| ECNECGKAFSRSSGLFNHRGIHNI [ZSCAN9] | 2.48 ± 0.59 | 2.16 ± 0.31 |  |  |
| ETVADVRTLPNASTVDNIRSIFGN [MLH1] | 4.21 ± 0.18 | 4.19 ± 0.11 |  |  |
| FKRSTGTWHHTKPLLPSDLRRTGC [GAN] | 2.78 ± 0.22 | 2.82 ± 0.39 |  |  |
| SLVADNCVTLVWRMPDEDSKIDHY [FSD1] | 2.62 ± 0.15 | 2.94 ± 0.34 |  |  |

| Sequence | protein stability index [1] | protein stability index [2] | protein stability index (treatment: DMSO, c terminus: native) | protein stability index (treatment: MLN4924 1 uM, 8 h, c terminus: native) |
| --- | --- | --- | --- | --- |
| RRLIKRFSFKSKPKANGNPSPQL [C2CD2L] |  |  | 4.24 ± 0.3 | 4.38 ± 0.16 |
| ESVVKSEDFSLPAYMDRRDHPLPE [COX4I1] | 5.1 ± 0.17 | 4.82 ± 0.098 |  |  |
| PRPNRLFLRQLRASHLGNELEGTE [C2CD2L] | 3.92 ± 0.15 | 4.05 ± 0.26 |  |  |
| YGQGRKIAEVCCTSIVYATEKKQT [KCTD10] | 2.83 ± 0.34 | 3.1 ± 0.21 |  |  |
| FTEASMMMSLTKLADKELVHMISW [ESR2] | 3.29 ± 0.78 | 3.48 ± 1.2 |  |  |
| KLEESKQLLKNNEKLITWLNKELN [SASS6] | 2.24 ± 0.36 | 1.99 ± 0.73 |  |  |
| ATLFFHYIKTPLFNPEVAKYLKVP [IQUB] | 2.93 ± 0.21 | 2.57 ± 0.66 |  |  |
| EQKTGTEAEAADSGAVGARRFLLC [MFSD9] | 4.48 ± 0.15 | 4.42 ± 0.1 |  |  |
| LYPALKGVNTVFHCASPPPSSNNK [NSDHL] | 3.47 ± 0.064 | 3.52 ± 0.16 |  |  |
| AHRAILVARCEVMAAMFNGNYMEA [RHOBTB3] | 2.54 ± 0.95 | 2.08 ± 0.97 |  |  |
| DHELGRCTDSVVKYELMRPSNKAP [EHMT1] | 4.19 ± 0.091 | 4.23 ± 0.31 |  |  |
| PIMSGQGLAGFFASVAMICAIASG [SLC29A1] | 3.12 ± 0.21 | 3.13 ± 0.48 |  |  |
| GLGHGSTSRGGPWVGTGLAAALAG [CPOX] | 3.17 ± 0.21 | 3.21 ± 0.29 |  |  |
| ALKAAKREQEKKPKKEANQAPKSK [LRRC59] | 5.24 ± 0.27 | 5.28 ± 0.18 |  |  |
| RPVLLSKIEGHQDAVTAALLIPKE [WDFY1] | 3.87 ± 0.28 | 3.94 ± 0.34 |  |  |
| SLYILRGSARYDFSHEILRDEESF [ALKBH7] | 2.63 ± 0.21 | 2.2 ± 0.6 |  |  |
| LDFTHPKARDWFQGHLRRLRSRYS [MYORG] | 2.79 ± 0.39 | 2.97 ± 0.074 |  |  |
| EILTCGRDGEPEPMQKLQDLVNRT [RBBP5] | 4.01 ± 0.2 | 3.78 ± 0.25 |  |  |
| LPRRDFQRQVWLLFEYPESSGPAR [KCNA3] | 2.32 ± 0.26 | 2.71 ± 0.58 |  |  |
| EAWYEDLQEVLSSDENGGTYVSPP [DDIT3] | 4.89 ± 0.11 | 4.93 ± 0.15 |  |  |
| LGLAGRCLTLTPRPATEAELLTCH [HDAC6] | 2.86 ± 0.26 | 2.7 ± 0.4 |  |  |
| YSFYMLTCIDMDWKVLTWLRYTLW [HACD3] | 2.63 ± 0.85 | 2.65 ± 0.36 |  |  |
| PAEEAGPEGGLEEPDALDDSLTSL [FOXJ1] | 5.6 ± 0.23 | 5.56 ± 0.34 |  |  |

| Sequence | protein stability index [1] | protein stability index [2] | protein stability index (treatment: DMSO, c terminus: native) | protein stability index (treatment: MLN4924 1 uM, 8 h, c terminus: native) |
| --- | --- | --- | --- | --- |
| GRQKYKRRPEVDPLPFPGPFPAGP [ESRRA] | 3.87 ± 0.22 | 4.02 ± 0.26 |  |  |
| LAYLPFKLEKSIDSYYRLVIHRAL [PCDHGA10] | 2.25 ± 0.62 | 2.23 ± 0.81 |  |  |
| THSSVVLQGFDQLRLEGLLCDVTL [KLHL13] | 2.43 ± 0.33 | 2.19 ± 0.19 |  |  |
| FWNSPSSPSSSAASSSSPSSSSAV [RHOBTB2] | 4.41 ± 0.14 | 4.4 ± 0.089 |  |  |
| QTFQWVKLPATMPEPVYFHCAAVT [KLHDC10] | 2.28 ± 0.36 | 2.33 ± 0.39 |  |  |
| EEENIGCEEKAKKNANRPLLDEIV [ACBD3] | 5.25 ± 0.24 | 5.46 ± 0.24 |  |  |
| VRRTDDTPVVLVGNKSDLKQLRQV [RIT1] | 3.56 ± 0.26 | 3.6 ± 0.23 |  |  |
| QYAMTRAQRVRAAMFPETLDEGMQ [CTNNB1] | 3.76 ± 0.29 | 3.68 ± 0.39 |  |  |
| GLEEADAEVSVISEADPQALLQAM [FBF1] | 5.06 ± 0.26 | 5.05 ± 0.15 |  |  |
| GDGVPPRSLQDGTREGFGHSTSLK [LCOR] | 5.08 ± 0.24 | 4.92 ± 0.22 |  |  |
| YTPDLPRADVDHAIEKAFQLWSNV [MMP1] | 2.6 ± 0.73 | 2.86 ± 0.77 |  |  |
| VCISTKTQCSEEDQCKINKQIYNL [FEM1B] | 3.22 ± 0.19 | 3.33 ± 0.25 |  |  |
| EMDMVVFRPEMKKHSWCLKRKNPP [N4BP2L1] | 3.25 ± 0.31 | 3.25 ± 0.18 |  |  |
| RDIDLKNRRGGPPFAFVEFEDPRD [SRSF1] | 4.03 ± 0.35 | 4.27 ± 0.18 |  |  |
| PPKQAQKEQRKQMKGRGQLEKPPA [TBC1D10A] | 5.26 ± 0.18 | 5.29 ± 0.21 |  |  |
| MAGAIAQGLIRAGKVEAQHILASA [PYCR3] | 2.18 ± 0.18 | 2.31 ± 0.32 |  |  |
| QRRRRVENAGGSPSPEPAGRRAAL [RSAD1] | 5.11 ± 0.4 | 5.15 ± 0.27 |  |  |
| KMTDLLSRRLQLGSEENGRYFSLS [PCDHGC5] | 2.41 ± 0.16 | 2.47 ± 0.14 |  |  |
| TFFLRTDAETPPRFTRTPVDQTGV [PTPRD] | 3.42 ± 0.16 | 3.28 ± 0.45 |  |  |
| QSRSFRILAHLTGTEFMQDPDEEH [PDLIM7] | 3.95 ± 0.11 | 4.17 ± 0.07 |  |  |
